Laboratory results: paper PMC12524728, “Integrating Structural Bioinformatics and Functional Mechanisms of Sesquiterpene Synthases CARS and CADS in Lavandula angustifolia (Lavender)” (International Journal of Molecular Sciences, 2025)

What was measured:
Assay in all cases: enzyme kinetics, Hanes-Woolf plot
Type in all cases: biochemical, Lavandula angustifolia
Conditions in all cases: Mg2+-dependent enzyme; assay conditions only in supplement
[1] = test system: T1, CC(C)=CCC/C(C)=C/CC/C(C)=C/CO[P@@](=O)(O)OP(=O)(O)O
T1 construct: C-terminal deletion of residues 529-555; host and tags only in supplement
Description: enzyme kinetics, Hanes-Woolf plot on ∆529–555 (CADS)

[2] = test system: T2, CC(C)=CCC/C(C)=C/CC/C(C)=C/CO[P@@](=O)(O)OP(=O)(O)O
T2 construct: C-terminal deletion of residues 522-548; host and tags only in supplement
Description: enzyme kinetics, Hanes-Woolf plot on ∆522–548 (CARS)

[3] = substrate: CC(C)=CCC/C(C)=C/CC/C(C)=C/CO[P@@](=O)(O)OP(=O)(O)O
Description: enzyme kinetics, Hanes-Woolf plot on CARS (wild-type, full-length)

[4] = substrate: CC(C)=CCC/C(C)=C/CC/C(C)=C/CO[P@@](=O)(O)OP(=O)(O)O; remark: listed apart in the source
Description: enzyme kinetics, Hanes-Woolf plot on ∆1–226 (CARS)

[5] = substrate: CC(C)=CCC/C(C)=C/CC/C(C)=C/CO[P@@](=O)(O)OP(=O)(O)O; remark: listed apart in the source
Description: enzyme kinetics, Hanes-Woolf plot on CADS (wild-type, full-length)

[6] = substrate: CC(C)=CCC/C(C)=C/CC/C(C)=C/CO[P@@](=O)(O)OP(=O)(O)O; remark: listed apart in the source
Description: enzyme kinetics, Hanes-Woolf plot on ∆1–228 (CADS)

∆529–555 (CADS) (Lavandula angustifolia; DEL529-555)
Km [1]: 7.13 ± 0.29 µM
kcat [1]: 0.44 ± 0.00883 s⁻¹

∆522–548 (CARS) (Lavandula angustifolia; DEL522-548)
Km [2]: 4.96 ± 0.17 µM
kcat [2]: 0.391 ± 0.0115 s⁻¹

B1: CARS (wild-type, full-length) (Lavandula angustifolia) (protein)
chain: MAAPISTNNVCSDDARPVTYHPNVWSDYFLRYTSELTEISVAKKEEHERQKEAIRNLLLQTRDDSTLKLELVDAIQRLGIGYHFEEEIHNSLRNIYDTNPIYNAEDDNLRVAALRFRLIRQQGFPAPCDVFRKFVDEEGEFKSWVSNDVEGLLNLYEASNFAVHGEEILEKALEFCSLRLEFLTQGMTNSLSMRVKEALKIPISKTLTRLGARKFMSMYQEDESHNETLLNFAKLDFNLVQKIHQKELNQITRWWKELDFGKNLPFARDRPVECYFWIVGVYFEPRYGIARTLLTKIIYLASVLDDIYDVYGTLAELTIFTQIIRRWDSDAMDQLPPYMRIYCKALFDVYVEMEEEMGKIRKSYAVEYAKKEMKRLAEMYFQEAQWAFSKYKPTMKEYLKVALISSGYMMMTINSLTTIEDLITEEEFNWILSEPRILRASLTITRLMDDLAGYGTEGKMSAVHYYMAENGVSEGEAFKEVSGIIKSAWKDVNAECVEPRAASTTILRCVVDFTRVIVLLYSDEDAYGNSQTKTKDLIKSVLVDPLII
notes: full-length, codon-optimised gene; monomer by DLS; host and tags only in supplement
Km [3]: 11.34 ± 0.13 µM
kcat [3]: 0.104 ± 0.00183 s⁻¹

B2: ∆1–226 (CARS) (Lavandula angustifolia) (protein)
chain: ETLLNFAKLDFNLVQKIHQKELNQITRWWKELDFGKNLPFARDRPVECYFWIVGVYFEPRYGIARTLLTKIIYLASVLDDIYDVYGTLAELTIFTQIIRRWDSDAMDQLPPYMRIYCKALFDVYVEMEEEMGKIRKSYAVEYAKKEMKRLAEMYFQEAQWAFSKYKPTMKEYLKVALISSGYMMMTINSLTTIEDLITEEEFNWILSEPRILRASLTITRLMDDLAGYGTEGKMSAVHYYMAENGVSEGEAFKEVSGIIKSAWKDVNAECVEPRAASTTILRCVVDFTRVIVLLYSDEDAYGNSQTKTKDLIKSVLVDPLII
notes: N-terminal deletion of residues 1-226; host and tags only in supplement
Km [4]: 9.57 ± 0.24 µM
kcat [4]: 0.24 ± 0.00533 s⁻¹

B3: CADS (wild-type, full-length) (Lavandula angustifolia) (protein)
chain: MATSAVVNCLGGVRPHTIRYEPNMWTHTFSNFSIDEQVQGEYAEEIEALKQEVRSMLTAATTCKEQLILIDTLERLGLSYHFETEIEQKLKEIILHINREEDASGGDCDLYTTSLGFRVIRQHQYHISCGVFEKYLDKDGKFEESLSSDTEGILSLYEAAHVRFRDETLLQEAARFSRHHLKGMEEVLESPLREKVQRALQHPLHRDIPIFYAHFFISNIYQKDDSRNELLLKLAKSNFMFLQNLYKEELSQLSRWWNKFDLKSKLPYARDRLVEAYIWGVGYHYEPRYAYVRRGLVIGIQIIAIMDDTYDNYATVDEAQLFTEMFERWSMDGIDGVPDYLKIAYHFVVSAFEDYERDAGKLGKQFAAPYFKQTIQQLARAYNQELKWVMGTQSMPSFQDYAKNSEITSCIYIMSASVFHGLESVTQETIDWLKNEPNFAVSTGMIGRYWDDIGSHERESRGGKMLTAVGCYMKQYGVSKKEAVRKFREQVEDLWKDVNKGYTAMTCMPRETAVLFLNYARMCDASYTENNDDGYTDPDFSKRKISALFLDPLVF
notes: as for B1
Km [5]: 15.86 ± 0.21 µM
kcat [5]: 0.0993 ± 0.00383 s⁻¹

B4: ∆1–228 (CADS) (Lavandula angustifolia) (protein)
chain: ELLLKLAKSNFMFLQNLYKEELSQLSRWWNKFDLKSKLPYARDRLVEAYIWGVGYHYEPRYAYVRRGLVIGIQIIAIMDDTYDNYATVDEAQLFTEMFERWSMDGIDGVPDYLKIAYHFVVSAFEDYERDAGKLGKQFAAPYFKQTIQQLARAYNQELKWVMGTQSMPSFQDYAKNSEITSCIYIMSASVFHGLESVTQETIDWLKNEPNFAVSTGMIGRYWDDIGSHERESRGGKMLTAVGCYMKQYGVSKKEAVRKFREQVEDLWKDVNKGYTAMTCMPRETAVLFLNYARMCDASYTENNDDGYTDPDFSKRKISALFLDPLVF
notes: N-terminal deletion of residues 1-228; host and tags only in supplement
Km [6]: 11.13 ± 0.37 µM
kcat [6]: 0.2937 ± 0.00233 s⁻¹
